Data on one substance can be found in article PMC6007841.

The target in assay [1] is mouse melanocortin 4 receptor (mouse) (UniProt P56450).
The target of assay [2] is human melanocortin 4 receptor (human) (UniProt P32245).
The target in assay [3] is human melanocortin 5 receptor (human) (UniProt P33032).
The target in assay [4] is mouse melanocortin 1 receptor (mouse) (UniProt Q01727).
Assay [5] deals with human melanocortin 1 receptor (human) (UniProt Q01726).
Assay [6] deals with mouse melanocortin 5 receptor (mouse) (UniProt P41149).
The target of assay [7] is mouse melanocortin 3 receptor (mouse) (UniProt P33033).
The target of assay [8] is human melanocortin 3 receptor (human) (UniProt P41968).
human melanocortin 3 receptor (human), sequence (P41968 whole entry): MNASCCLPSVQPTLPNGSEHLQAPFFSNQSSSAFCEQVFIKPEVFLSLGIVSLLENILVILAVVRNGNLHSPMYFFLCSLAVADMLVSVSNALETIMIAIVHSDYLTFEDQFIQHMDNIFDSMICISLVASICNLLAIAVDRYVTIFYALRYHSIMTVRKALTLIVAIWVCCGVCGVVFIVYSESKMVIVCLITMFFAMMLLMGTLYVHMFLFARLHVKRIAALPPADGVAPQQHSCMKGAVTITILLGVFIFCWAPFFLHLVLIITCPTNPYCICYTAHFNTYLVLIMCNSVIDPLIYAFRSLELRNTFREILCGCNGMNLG

human melanocortin 4 receptor (human), sequence (P32245 whole entry): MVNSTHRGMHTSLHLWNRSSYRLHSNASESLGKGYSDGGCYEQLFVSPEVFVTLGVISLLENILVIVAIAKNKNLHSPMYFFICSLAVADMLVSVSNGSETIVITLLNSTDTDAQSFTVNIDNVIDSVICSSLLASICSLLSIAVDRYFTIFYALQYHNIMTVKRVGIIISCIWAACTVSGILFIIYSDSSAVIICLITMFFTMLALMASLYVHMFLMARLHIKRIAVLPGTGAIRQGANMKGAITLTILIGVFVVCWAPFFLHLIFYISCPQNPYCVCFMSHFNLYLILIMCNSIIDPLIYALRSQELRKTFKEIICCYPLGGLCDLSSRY
human melanocortin 5 receptor (human), sequence (P33032 whole entry): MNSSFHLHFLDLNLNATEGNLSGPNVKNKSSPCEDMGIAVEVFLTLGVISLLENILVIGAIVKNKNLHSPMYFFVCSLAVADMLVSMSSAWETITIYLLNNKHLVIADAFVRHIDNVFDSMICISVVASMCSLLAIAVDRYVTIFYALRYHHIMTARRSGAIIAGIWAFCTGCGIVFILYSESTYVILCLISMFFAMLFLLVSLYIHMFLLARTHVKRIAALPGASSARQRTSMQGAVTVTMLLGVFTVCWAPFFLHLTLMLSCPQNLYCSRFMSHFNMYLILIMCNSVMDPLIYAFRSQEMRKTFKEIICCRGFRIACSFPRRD
mouse melanocortin 4 receptor (mouse), sequence (P56450 whole entry): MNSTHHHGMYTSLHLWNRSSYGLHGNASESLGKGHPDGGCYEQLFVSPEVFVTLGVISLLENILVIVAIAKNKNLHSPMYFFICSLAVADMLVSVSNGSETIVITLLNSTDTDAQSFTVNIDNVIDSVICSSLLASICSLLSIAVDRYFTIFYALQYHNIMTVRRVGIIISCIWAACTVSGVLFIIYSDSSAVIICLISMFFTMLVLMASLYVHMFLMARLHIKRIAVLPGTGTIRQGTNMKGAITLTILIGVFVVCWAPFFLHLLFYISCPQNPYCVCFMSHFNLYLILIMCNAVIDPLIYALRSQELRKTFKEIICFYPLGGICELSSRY
mouse melanocortin 3 receptor (mouse), sequence (P33033 whole entry): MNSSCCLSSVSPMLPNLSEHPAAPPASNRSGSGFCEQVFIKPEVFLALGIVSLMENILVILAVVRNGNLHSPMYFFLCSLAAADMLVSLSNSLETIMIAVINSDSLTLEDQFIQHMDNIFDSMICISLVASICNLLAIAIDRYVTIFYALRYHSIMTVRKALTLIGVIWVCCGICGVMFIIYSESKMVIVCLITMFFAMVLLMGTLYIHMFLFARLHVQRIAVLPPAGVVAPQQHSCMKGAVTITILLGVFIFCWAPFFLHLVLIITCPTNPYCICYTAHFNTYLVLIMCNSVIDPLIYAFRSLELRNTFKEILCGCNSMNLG
human melanocortin 1 receptor (human), sequence (Q01726 whole entry): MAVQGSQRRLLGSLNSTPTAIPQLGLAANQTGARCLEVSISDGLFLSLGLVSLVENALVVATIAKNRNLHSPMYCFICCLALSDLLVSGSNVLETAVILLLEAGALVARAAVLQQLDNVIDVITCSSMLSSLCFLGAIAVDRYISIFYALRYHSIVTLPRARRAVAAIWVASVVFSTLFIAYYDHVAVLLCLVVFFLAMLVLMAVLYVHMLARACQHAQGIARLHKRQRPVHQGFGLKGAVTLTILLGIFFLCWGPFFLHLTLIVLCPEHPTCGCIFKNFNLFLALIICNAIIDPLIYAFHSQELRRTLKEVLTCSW
mouse melanocortin 1 receptor (mouse), sequence (Q01727 whole entry): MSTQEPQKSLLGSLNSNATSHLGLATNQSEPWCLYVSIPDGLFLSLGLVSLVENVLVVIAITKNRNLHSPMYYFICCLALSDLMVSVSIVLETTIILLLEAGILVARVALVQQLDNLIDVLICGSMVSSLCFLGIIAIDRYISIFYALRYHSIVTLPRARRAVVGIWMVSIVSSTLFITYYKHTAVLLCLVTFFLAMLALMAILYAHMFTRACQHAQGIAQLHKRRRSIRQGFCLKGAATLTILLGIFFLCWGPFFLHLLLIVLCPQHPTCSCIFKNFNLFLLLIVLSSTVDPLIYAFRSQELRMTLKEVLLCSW
mouse melanocortin 5 receptor (mouse), sequence (P41149 whole entry): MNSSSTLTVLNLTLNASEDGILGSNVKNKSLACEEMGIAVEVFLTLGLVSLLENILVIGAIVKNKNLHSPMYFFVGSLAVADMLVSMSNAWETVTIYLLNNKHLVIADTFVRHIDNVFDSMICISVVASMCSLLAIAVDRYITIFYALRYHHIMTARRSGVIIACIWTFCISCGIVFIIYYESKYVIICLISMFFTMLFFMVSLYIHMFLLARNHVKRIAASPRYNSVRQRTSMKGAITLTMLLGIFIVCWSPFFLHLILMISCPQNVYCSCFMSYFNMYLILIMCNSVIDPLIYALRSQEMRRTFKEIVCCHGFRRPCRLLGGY

Consider NDP-MSH (peptide), for which the cAMP agonist EC50 (AlphaScreen cAMP assay, HEK293 cells expressing the receptor) in assay [1] is 0.87 nM; in assay [2], 0.13 nM; in assay [3], 0.4 nM; in assay [4], 0.04 nM; in assay [5], 0.07 nM; in assay [6], 0.41 nM. The cAMP agonist EC50 (AlphaScreen cAMP assay, HEK293 cells expressing the receptor) came out at 0.33 nM in assay [7] and 0.3 nM in assay [8].
